Data: the RNAGym collection of RNA variant scans (doi:10.1073/pnas.2313332121)

B1: TPR t1 (parent)
chain: GACCAAUCUGCCCUCAGAGCUCGAGAACAUCUUCGGAUGCAGAGGAGGCAGGCUUCGGUGGCGCGAUAGCGCCAACGUCCUCAACCUCCAAUGCAUCCCACCACAUGAUGAUGCCUGAAGAGCCUUGGUUUUUUG

Variants of: B1
Assay: polymerase ribozyme fitness, log enrichment relative to wild type (log ratio); higher = more active; in vitro selection for triplet polymerase activity
Outline: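 Each subunit of a heterodimeric triplet polymerase ribozyme was mutagenized into a library by PCR, transcribed, and subjected to one round of in vitro selection, run in triplicate. Libraries were annealed with a biotinylated primer, the partner subunit and triplets, incubated frozen at −7 °C, and extended constructs were gel-excised, captured on streptavidin beads and recovered by RT-PCR. Input and output libraries were sequenced on Illumina, keeping genotypes with ≥10 input reads and ≥1 read per output. Fitness is log base 2 of genotype enrichment divided by wild-type enrichment, from inverse-variance-weighted replicate averages.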

| Variant | polymerase ribozyme fitness (log ratio) |
| --- | --- |
| U7G C12U G36A C40A G45A G71U | -3.31 |
| U7G C8A G44A C123A | 1.17 |
| U7A C13G U32C U38G | -1.31 |
| A6U C49U G60U C94G G113A | -2.65 |
| A6G G19A A43U C123A G128A | -5.55 |
| A6U C40A C56G A84G C104U | -2.66 |
| U7A C22A C40G A68U A84C G110C | -6.51 |
| U7G C56A | 0.0403 |
| U7A G63C U81G | -4.09 |
| A6U C12A G48U U106G | -1.45 |
| A6C G93C A121G G127C | 0.208 |
| A6C U7G A29G G48C G61A A95C | -2.21 |
| U7A G35C A41C C64U C79U G113U | -7.12 |
| U7C A16G C70A C94U C104U U112A | -1.32 |
| U7C A37U C73A | -0.516 |
| U7A A50U C64U | -0.349 |
| U7A U55G | -0.938 |
| U7A C73G U129G | -2.6 |
| U7C G47A G69U C72A C102G | -4.77 |
| U7A C70U C115A | 0.524 |
| A6G C12U | -0.282 |
| U7A G45U C56G A66G | -3.29 |
| U7C G39A C124U | 0.776 |
| A6U C62A | -1.01 |

| Variant | polymerase ribozyme fitness (log ratio) |
| --- | --- |
| A6U G23U | -4.65 |
| U7G A84C U112C A119U | 1.28 |
| A6U A26U G39A C49G G61A C88U C124G | -3.73 |
| A6U G19A | -2.37 |
| A6U C53U G61C G77C C104A | -2.75 |
| A6G A18U | -1.31 |
| A6U C56G G110U | -1.25 |
| A6G C13A G17A A95G | -3.46 |
| A6G C62U U129C | -0.185 |
| U7A C20U | -0.343 |
| U7A C11A U81A | -1.32 |
| U7C C72G A84C | -0.576 |
| A6U C56A C94A U106A C124A | 0.262 |
| A6U C8G C73G C88A U92G C98A G113U | -6.38 |
| A6U C115U A119U U130G | -1.27 |
| A6U U9G G63A C104U C115U G117U | -3.69 |
| A6C G52U G63A | -0.684 |
| A6U C40G G42C C76A C94U U112C G122A | -2.22 |
| U7A C8G A43C C53A G69U | -0.446 |
| A6G C12A A50G G120A | 2.01 |
| U7G A16C G42A | -4.17 |
| U7C U14G G48U C70G | -5.7 |
| A6U U14A C86A U96A | -6.24 |
| U7A G69U C98U | -0.115 |

| Variant | polymerase ribozyme fitness (log ratio) |
| --- | --- |
| U7G C20U | -1.37 |
| A6C U78C A100U G120A U131C | -0.187 |
| U7G C8U A90U A121C | 1.04 |
| A6G U21C G61C C114A | -3.62 |
| U7C C11U G69C | -1 |
| A6G G63U C73G C102A G110U C115G | -6.75 |
| U7A C8A G19U C97G A105G C124U | -7.51 |
| A6U C40U C56U G69C A121C | -6.3 |
| A6U G71U C82G | -0.9 |
| A6G G113A | -0.703 |
| A6U G63C C80U G93C U106A | -3.58 |
| A6G C101A C115G | -1.96 |
| A6C G71A G93C C99U C123A U130A | -7.12 |
| A6U C98A | -3.74 |
| U7C C56A G71U A90C | -3.95 |
| A6C G48A G71U C82A | -1 |
| A6G G10U A43C G71A | -4.79 |
| A6U C11G U112A U126A | 1.81 |
| A6G A50C C70G | -3 |
| A6U G17U C40U C76G | -3.15 |
| A6U C12A G61A U78A C80U C86A G120A | -2.58 |
| U7C C62U G120A G128A | 0.578 |
| A6G C49G G51U C73G U133A | -2.49 |
| A6U G17C U130A | -4.89 |

| Variant | polymerase ribozyme fitness (log ratio) |
| --- | --- |
| U7C G17C C115A | 0.0409 |
| A6C U78A | 0.00944 |
| U7G C28G U106A | -1.02 |
| A6U C40U C123A | 0.808 |
| U7C C11G C62A U96G | -1.18 |
| A6U A90U C114A U116G | -3.49 |
| A6U G63C C80A | -3.25 |
| A6G G51A A75U C88G U92C | -6.38 |
| U7C C56A G135U | -1.85 |
| A6G G47A C53U U59C | -1.37 |
| A6G C13U C102U G122A | -2.62 |
| A6U C72A | 0.375 |
| U7A A16U C49U C124U | 1.1 |
| A6U C53U | 0.192 |
| A6U C15U A26G C86U A100U G120A C123A U125G | -5.49 |
| U7C A24U G61U | -7.38 |
| U7A C20G U78C | -4.76 |
| A6G C8G U30C A41G G60U | -3.67 |
| A6G G71C A118U | -0.254 |
| A6U G42U G51A | -5.8 |
| A6G C13U C22U G44C | -5.6 |
| A6U C56G U129A | -2.48 |
| A6G C76A C79A G120C | 0.0381 |
| U7G A46U | -1.38 |

| Variant | polymerase ribozyme fitness (log ratio) |
| --- | --- |
| U7C A41U C123G U131A | 0.484 |
| U7A U9C | 0.526 |
| A6U C115U | -1.06 |
| A6U C15A G51C G71U C124U | -5.41 |
| U7A C12G C89G A111C | -2.35 |
| U7A G93C | -0.696 |
| A6U G120U | -0.0286 |
| A6U G120C | 1.12 |
| A6U A29U G61A C115G G117U | -4.58 |
| U7A G19U C73G U92A | -4.76 |
| A6U C11A C12U A37G G61A | -1.24 |
| A6G A46C C49A C53A U55C G127U | -3.07 |
| U7A C8G A16C A46U | -0.61 |
| A6U G58A U81A G110A A118C | -2.44 |
| U7A G36U G61U C124G | 0.266 |
| A6C G47A C86U U133G | -0.584 |
| U7C A16C G52C G110A U130A | -5.74 |
| A6U C22G U87A U92C A121U | -2.63 |
| A6G A24G G36U C49A | -3.79 |
| A6U G10U C13G C40U A41C G63U U78C C79A A121G | -4.13 |
| U7C A50U C82U | -0.98 |
| A6U C8A G71C C115A U116A A121G U131A | -2.72 |
| A6C G44A G61U | -0.646 |
| U7C C11A C22A | -5.95 |

| Variant | polymerase ribozyme fitness (log ratio) |
| --- | --- |
| A6C G47A C123U U125A | -0.223 |
| A6G U7G A37G G48U | 0.0457 |
| A6C G113A | -1.23 |
| A6G U7G A18C G52U U81A C115G | -4.51 |
| A6U C22A C49U C72U | -5.16 |
| A6U C8U G48U | -0.267 |
| U7C G10C A83C C115U | -1.32 |
| U7C C11G A100C G120A | 1.21 |
| A6G A121C | 2.2 |
| A6U G48A A91C C114A | -2.36 |
| U7A U14A C86U A90U | -3.61 |
| A6C U7G C22G G58U A95G C104A G120C | -3.33 |
| A6G C12A G117A | -2.34 |
| A6U G48C | -0.598 |
| A6G G10U C56U C94U G135U | -1.99 |
| A6G C11G G57U | 0.178 |
| A6G G71A G120C | 0.128 |
| U7C A43U C72G A90G C124A U125G U133C | -0.0724 |
| U7G A111U | -1.87 |
| U7C C56U C72U U130G | -0.275 |
| U7A C123G | 2.34 |
| U7A A16C C115A | -2.49 |
| U7C A74C | 0.236 |
| A6U C20U A37U G61A | -0.862 |

| Variant | polymerase ribozyme fitness (log ratio) |
| --- | --- |
| U7A C15U C56A G69U U106G G120C | -0.793 |
| U7C G17A G63U A121C | -1.33 |
| A6G A37U C72A C73U G117U C124A | -0.937 |
| A6C U9A C15G G45A C104A C124G | -3.65 |
| A6U G44A | -1.02 |
| A6U G44U | -1.52 |
| U7C C12G | 0.687 |
| U7C C12A | -0.242 |
| U7A C89U | -0.565 |
| A6G G69A C115A G120A | -1.22 |
| A6G G48U G52C C73G | -3.58 |
| U7A U78C G93U G113C | -3.01 |
| U7G A50U C64U G117C | -4.92 |
| A6U A16U C40G C56A | -3.22 |
| U7A U32C | 0.304 |
| U7A G52A A111C | 0.419 |
| U7G A84U G127A | -0.135 |
| U7C A66C G77C C88A | -2.34 |
| U7C U112C G113U G135A | -3.06 |
| A6G G47U G71A | -2.24 |
| A6U G71A A83G | -1.85 |
| A6G C62A | -0.491 |
| U7C C11G C82U | 0.131 |
